Results published in patent US20070265189A1 (published 2007).

What was measured:
[1] = molecular target: T1, soluble human insulin receptor-immunoglobulin heavy chain chimera (sIR-Fc; Bass et al., 1996) (human, UniProt P06213 28-956, limits assumed); assay: phage ELISA
T1 construct: extracellular domain; also called soluble IR (Bass construct); not shown: immunoglobulin heavy chain constant domains

[2] = molecular target: T2, Soluble IGF-1R (sIGF-1R), R&D Systems Cat. # 391-GR/CF (UniProt P08069 31-935, limits assumed); assay: phage ELISA
T2 construct: extracellular domain

| IR/IGF-1R comparison [1] | Ratio over Background [1] | IGF-1R/IR comparison [2] | Ratio over Background [2] | Binder |
| --- | --- | --- | --- | --- |
| 0.1 | 2.4 | 16.6 | 39.9 | RLFYCGIQALGANLGYSGCV [R20α-4-20A12-IR] |
| 0.1 | 1.2 | 15.5 | 18.7 | LKDGFYDYFWQRLHLGS [NNRPγ-4-B11-IR] |
| 0.4 | 13.5 | 2.8 | 37.4 | EAASLGSQDRNFYDWFVRQVV [A6S-2-D11-IR] |
| 0.1 | 1.1 | 13.9 | 14.8 | KLHNLMFYYGLQRLVWGAGLG [20E2B-4-H3-IGFR] |
| 0.1 | 1.8 | 17 | 31 | YRGMLVLGRSSDGAGKVAFERPARIGQTVFAVNFYDWFV [A6L-0-E6-IR] |
| 0.1 | 1.6 | 11.3 | 17.7 | GGTEVDFYRALERLVRGQLGL [20E2B-3-D8-IGFR] |
| 0.1 | 1.7 | 14.2 | 24.2 | RCEEKQAEVGPSSDPFYHKMSELLGCR [B6Hα-3-E9-IR] |
| 0.5 | 1.6 | 2.1 | 3.3 | FRTLAAQHDSFYDWFDRQVSGAAGER [H2CA-3-C11-IGFR] |
| 0.3 | 1.6 | 3 | 4.6 | AICDAGFHEHFYDWFALQVSDCGRQS [H2CA-2-B11-IGFR] |
| 0.1 | 0.7 | 14.6 | 10.5 | VGRASGFPENFYDWFGRQLSLQSGEQ [H2CA-4-H6-IGFR] |
| 0.1 | 1.6 | 11.7 | 18.7 | RGMKEEVLVGGSTDPFYHKLSELLQGS [B6Hα-3-F11-IR] |
| 0.1 | 0.8 | 12.8 | 9.7 | YSCGDGFYSLLSDLLGGQFRC [20E2B-4-H12-IGFR] |
| 0.1 | 1.3 | 14.6 | 18.8 | QGGSASFYDAIDRLLRMRIGG [20E2A-4-F11-IGFR] |
| 0.1 | 1.3 | 13.1 | 16.3 | PDLHKGFYAQLAQLIRGQLLS [20E2B-3-E3-IGFR] |
| 0.3 | 1 | 3.5 | 3.4 | GAPVDQLHEDFYDWFVRQVSQAATG [H2CA-2-B2-IGFR] |
| 0.1 | 1 | 14.6 | 14.6 | RGCNDDGGKGWSDDPFYHKLSELICGG [B6Hα-1-A2-IR] |
| – | – | 13 | 26 | YRGMLVLGRISGGAGKAASERPARIGQKVSAVNFYDWFV [A6L-0-H3-IR] |
| < 0.1 | 1.2 | 27 | 32.3 | TFYSCLASLLTGTPQPNRGPWERCR [20C-3-G3-IGFR] |
| 0.1 | 1.9 | 14.1 | 26.1 | DRDFCRFYERLTALVGGQVDGGWPC [20C-3-F6-IGFR] |
| 0.1 | 1.1 | 14.8 | 16.8 | VEGRGLFYDLLRQLLARRQNG [20E2B-3-C6-IGFR] |

| IR/IGF-1R comparison [1] | Ratio over Background [1] | IGF-1R/IR comparison [2] | Ratio over Background [2] | Binder |
| --- | --- | --- | --- | --- |
| 0.1 | 1.6 | 15.8 | 25.2 | LQPCSGFYECIERLIGVKLSG [20E2Bβ-4-G7-IR] |
| 0.1 | 0.6 | 13.8 | 8.9 | GNGDGMFYQLLSLLVGRDMHV [20E2B-3-02-IGFR] |
| 0.4 | 9.8 | 2.5 | 24.7 | TSEVQRRSQDNFYDWFVAQVA [A6S-3-E2-IR] |
| 0.1 | 1.1 | 16.8 | 18.1 | GVRAMSFYDALVSVLGLGPSG [20E2B-1-A6-IGFR] |
| 0.3 | 3.3 | 3.4 | 11.1 | GFREGSFYDWFQAQVT [E4Dα-2-D11-IR] |
| 0.1 | 0.8 | 12.3 | 9.7 | VGYQGQGDENFYDWFIRQVSGRLGVQ [H2CA-4-F5-IGFR] |
| 0.1 | 3 | 10.3 | 30.8 | DRAFYNGLRDLVGAVYGAWD [R20α-4-20C11-IR] |
| 0.1 | 0.8 | 9.7 | 7.3 | PVGVQGFYEGLSRLVLGRGGW [20E2B-4-F8-IGFR] |
| 0.1 | 1.1 | 11.7 | 12.4 | IQQELTFYDLLHRLVRSELGS [20E2B-3-D2-IGFR] |
| 0.1 | 1.5 | 17.3 | 25.9 | RGQSDAFYSGLWALIGLSDG [R20β-4-A6-IR] |
| 0 | 1 | 20.5 | 20.5 | CCTTEMVVMDARDDPFYHKLSELVTGG [B6Hα-1-B5-IR] |
| 0.1 | 3.1 | 12.9 | 39.9 | FYDAIDQLVRGSARAGGTRD [R20α-3-20E2-IR] |
| 0.1 | 1.5 | 11.1 | 16.7 | LRIANLFYQRLWDLAFGGGG [20E2B-3-E8-IGFR] |
| 0.3 | 1.9 | 3.3 | 6.2 | SQAGSAFYAWFDQVLRTVHSA [20E2Bβ-4-G6-IR] |
| 0.4 | 12 | 2.6 | 30.6 | VERSASSQDGNFYDWFVVQIR [A6S-2-D1-IR] |
| 0.1 | 1.5 | 13.7 | 20.8 | SSYGCDGFYLMLFSLGLVASQELEC [20C-3-A1-IGFR] |
| 0.3 | 2.2 | 2.9 | 6.3 | LGYQEPFQQNFYDWFVRQVSGAENAG [H2CA-3-E8-IGFR] |
| – | – | 3 | 5.6 | RGAVAGFHDQFYDWFDRQVSRVHKFG [H2CA-4-H9-IGFR] |
| < 0.1 | 1.3 | 21.8 | 28 | FFYDCLAALLQGVARYHDLCAVEIT [20C-4-C7-IGFR] |
| 0.5 | 1 | 2.2 | 2.2 | HLADGQFHEKFYDWFERQISSRCNDC [H2CA-3-E11-IGFR] |
